Measured values reported in PMC4130924 (Protein & Cell, 2014).
Changes are numbered by the printed parent chain.

B1: Human ubiquitin C-terminal hydrolase Uch37, full-length (enzyme, UniProt Q9Y5K5 1-329, looked up)
chain: MTGNAGEWCLMESDPGVFTELIKGFGCRGAQVEEIWSLEPENFEKLKPVHGLIFLFKWQPGEEPAGSVVQDSRLDTIFFAKQVINNACATQAIVSVLLNCTHQDVHLGETLSEFKEFSQSFDAAMKGLALSNSDVIRQVHNSFARQQMFEFDTKTSAKEEDAFHFVSYVPVNGRLYELDGLREGPIDLGACNQDDWISAVRPVIEKRIQKYSEGEIRFNLMAIVSDRKMIYEQKIAELQRQLAEEEPMDTDQGNSMLSAIQSEVAKNQMLIEEEVQKLKRYKIENIRRKHNYLPFIMELLKTLAEHQQLIPLVEKAKEKQNAKKAQETK
B2: Full-length Uch37 containing only one cysteine (C27), labelled with Alexa Fluor 555 and Alexa Fluor 647 (enzyme, human, UniProt Q9Y5K5 1-329, looked up)
chain: B1 chain with C9A, C88A, C100A, C191A
modifications: Cys27 conjugated to Alexa Fluor 555 or Alexa Fluor 647 (randomly)
B3: Rpn13C (Rpn13 residues 270-407) (domain or fragment, UniProt Q16186 270-407, looked up)
chain: ILATMNVPAGPAGGQQVDLASVLTPEIMAPILANADVQERLLPYLPSGESLPQTADEIQNTLTSPQFQQALGMFSAALASGQLGPLMCQFGLPAEAVEAANKGDVEAFAKAMQNNAKPEQKEGDTKDKKDEEEDMSLD

How the values were obtained:
[1] = biological target: the molecule itself; experiment: time-resolved SAXS; stopped-flow mixing of Uch37 and Rpn13C at a 1:1 monomer molar ratio, overall 3.7 mg/mL, 8 ms to 600 s; I0 and Rg against time
[2] = biological target: the molecule itself; experiment: FRET or BRET; Uch37 (C27 only) randomly labelled with Alexa Fluor 555 and 647, 250 nmol/L, excited at 550 nm; then an excess molar amount of Rpn13C added, 30 min
[3] = biological target: B2; experiment: as above; conditions: both partners purified
[4] = biological target: B1; experiment: SPR; Biacore3000, 25°C, PBS; Rpn13C immobilised on CM5 by amine coupling, Uch37 15.6-500 nmol/L flowed over; 1:1 Langmuir model; conditions: both partners purified

Binder: B1
binding result [1]: binds

Binder: B2
binding result [2]: binds

Binder: B3
binding result [3]: binds | Kd [4]: 5.35 nM
